Measurements taken from article PMC10144703, “Molecular Mechanism of Sirtuin 1 Inhibition by Human Immunodeficiency Virus 1 Tat Protein” (Life, 2023).

Biological target: human full-length Sirt1 (human) (UniProt Q96EB6)
Sequence (Q96EB6 whole entry): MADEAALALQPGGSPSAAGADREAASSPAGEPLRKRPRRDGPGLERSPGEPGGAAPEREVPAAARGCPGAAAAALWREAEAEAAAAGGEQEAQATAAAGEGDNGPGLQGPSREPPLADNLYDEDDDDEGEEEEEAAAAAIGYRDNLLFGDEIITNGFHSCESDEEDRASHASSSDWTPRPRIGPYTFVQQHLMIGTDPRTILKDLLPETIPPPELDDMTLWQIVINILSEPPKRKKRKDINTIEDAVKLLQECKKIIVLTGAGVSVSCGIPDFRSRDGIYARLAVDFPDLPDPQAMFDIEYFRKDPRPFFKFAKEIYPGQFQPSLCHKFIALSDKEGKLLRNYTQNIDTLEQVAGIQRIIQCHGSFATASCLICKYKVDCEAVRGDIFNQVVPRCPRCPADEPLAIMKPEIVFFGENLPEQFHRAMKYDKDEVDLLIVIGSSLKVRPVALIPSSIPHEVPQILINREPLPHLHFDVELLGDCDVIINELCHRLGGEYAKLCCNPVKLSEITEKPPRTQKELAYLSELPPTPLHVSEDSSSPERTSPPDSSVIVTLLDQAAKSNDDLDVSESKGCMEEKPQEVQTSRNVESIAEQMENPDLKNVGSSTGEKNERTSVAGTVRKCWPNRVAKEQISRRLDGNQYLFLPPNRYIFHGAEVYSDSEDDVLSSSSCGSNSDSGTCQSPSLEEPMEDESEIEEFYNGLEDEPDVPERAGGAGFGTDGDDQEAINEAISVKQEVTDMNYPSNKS

“Tat-Cys^−-(21–63) (from UniProt P12506 21-63) (domain or fragment)” gave an inhibition of fl-Sirt1 in the FdL assay at 100 µM FdL-1; potency (IC50) of 30 µM.

Substance “Tat-Cys^−-(1–63) (from UniProt P12506 1-63) (domain or fragment)” has an inhibition of fl-Sirt1 in the FdL assay at 100 µM FdL-1; IC50 of 10 µM.
